{"source": "patent US6458354B1", "about": "“Molecular complexes which modify immune responses” (The Johns Hopkins University, priority 1996, dated 2002)", "key": {"[1]": {"biological_target": "SIY-loaded H-2 K^b (mouse) (UniProt P01901)", "sequence (P01901 22-369)": "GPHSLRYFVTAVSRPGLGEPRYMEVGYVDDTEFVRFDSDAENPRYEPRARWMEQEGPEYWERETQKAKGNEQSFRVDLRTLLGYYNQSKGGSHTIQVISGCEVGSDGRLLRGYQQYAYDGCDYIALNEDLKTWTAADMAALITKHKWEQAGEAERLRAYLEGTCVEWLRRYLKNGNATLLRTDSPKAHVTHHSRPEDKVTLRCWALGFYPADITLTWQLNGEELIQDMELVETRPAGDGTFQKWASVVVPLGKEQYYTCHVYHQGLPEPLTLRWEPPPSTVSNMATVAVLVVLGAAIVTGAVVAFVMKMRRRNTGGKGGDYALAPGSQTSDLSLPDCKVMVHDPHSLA", "test": "cell-based or functional assay"}, "[2]": {"biological_target": "SIY-loaded H-2 K^bm3 (mouse)", "test": "cell-based or functional assay"}, "[3]": {"biological_target": "dEV-8-loaded H-2 K^bm3 (mouse)", "test": "cell-based or functional assay"}, "[4]": {"biological_target": "p2Ca-loaded H-2 L^d (mouse) (UniProt P01897)", "sequence (P01897 25-362)": "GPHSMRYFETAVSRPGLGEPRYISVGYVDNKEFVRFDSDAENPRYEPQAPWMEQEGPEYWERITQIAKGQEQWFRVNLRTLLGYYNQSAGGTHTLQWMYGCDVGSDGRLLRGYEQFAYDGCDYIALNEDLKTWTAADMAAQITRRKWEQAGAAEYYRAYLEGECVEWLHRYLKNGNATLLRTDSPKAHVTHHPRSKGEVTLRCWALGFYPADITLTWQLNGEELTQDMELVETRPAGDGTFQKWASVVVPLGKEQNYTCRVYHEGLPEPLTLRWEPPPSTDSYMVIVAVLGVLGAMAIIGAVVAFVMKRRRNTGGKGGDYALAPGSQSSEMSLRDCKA", "test": "cell-based or functional assay"}, "[5]": {"test_system": "2C CTL, T2 K^b target cells", "type": "cell-based", "method": "(§1) FIGS. 12(A-C). 2C CTL mediated lysis on various peptide/MHC targets. […] Peptide-loaded target cells were then incubated at an effector to target ratio of 10:1 and specific lysis calculated as described below. Data shown are representative of three separate experiments.\n(§2) CTL Assays. Splenocytes from 2C TCR transgenic mice (Sha et al. Nature 336:73-76, 1988) were resuspended at 1.25×10^6 per ml and stimulated with 1.75×10^6 BALB/c splenocytes that had been exposed to 3,000 cGy radiation. On day 7, the 2C T cell-enriched cultures were restimulated at 5×10^5 per ml with 2.5×10^6 per ml BALB/c splenocytes. Experiments were performed on this and subsequent stimulationUs on day 4. All subsequent stimulation was performed with 3.75×10^5 per ml 2C splenocytes and 2.5×10^6 per ml BALB/c cells in the presence of IL-2 (5 units/ml).\n(§3) Assays were performed in triplicate according to established CTL protocols. Briefly, target cells (2-4×10^6) were incubated with […] ^51[Cr] at 37° C. for 1 h. After three washes, cells were added to V-bottom 96 well plates (3×10^3/100 μl) and incubated (25° C. for 1.5 hour) with peptides at the indicated concentrations. 2C T cells (3×10^4/100 μl) were added to targets and plates were incubated at 37° C. for 4.5 hour. Maximum release was achieved by incubating targets with 5% Triton X 100. Percent specific lysis was calculated from raw data using [(experimental release—spontaneous release )/(maximum release—spontaneous release)]×100."}, "[6]": {"test_system": "2C CTL, T2 K^bm3 target cells", "type": "cell-based", "method": "as §1, §2, §3"}, "[7]": {"test_system": "2C CTL, T2 K^bm11 target cells", "test": "2C CTL mediated lysis of peptide-loaded T2 K^bm11 targets", "type": "cell-based, mice", "conditions": "data not shown", "method": "as §2, §3"}, "2C TCR": {"biological_target": "2C TCR", "conditions": "read-out: Kd (μM) of 2C TCR for peptide/MHC complex; MHC restriction H-2 Ld; monovalent 2C TCR; cited from earlier work"}, "RENCA cells": {"test_system": "RENCA cells", "test": "Effect of γ-IFN on endogenous peptide/H-2 L^d complexes of RENCA cells, FACS with 2C TCR/Ig or mAb 30.5.7", "type": "cell-based, murine", "conditions": "for effect of prior incubation of RENCA cells with peptide on 2C TCR/Ig binding: saturating peptide", "method": "FIGS. 13(A-H). Fluorescence data showing modulation of endogenous 2C specific peptide/H-2 L^d complexes on the surface of RENCA cells by γ-IFN. RENCA cells were cultured for 48 hours with 0 (FIGS. 13A and 13E), 5 (FIGS. 13B and 13F), 10 (FIGS. 13C and 13G), or 50 (FIGS. 13D and 13H) units/ml γ-IFN. […] This was accomplished by incubating RENCA cells with saturating amounts of the H-2 L^d binding peptide, MCMV, which efficiently displaced the endogenous H-2 L^d bound peptides, including any 2C-reactive peptides. […] Cells were subsequently stained with GAM-IgG-RPE and analyzed by FACS. Resultant histograms are shown. Solid lines represent histograms of cultures with no added peptide while dotted lines represent histograms from cultures incubated with pMCMV. All experiments were done in duplicate and repeated at least three times. Note the differences in the extent of fluorescence (see the scales on the histograms) upon staining with 2C-TCR/Ig vs. staining with 30.5.7.\nPeptide Loading of Cells. RMA-S and T2 cell lines are defective in antigen processing and express functionally “empty” class I MHC on their cell surface. These “empty” MHC molecules can be loaded with peptides using the following protocol (25). Cells (RMA-S, RMA-S L^d, T2, T2 L^d, T2 Kb, T2 Kbm3 or T2 K^bm11) are cultured at 27° C. overnight. The following morning, cells are cultured in the presence of various antigenic peptides (100 μM final concentration) or in the absence of peptides for an additional 1.5 hours at 27° C. and then incubated for one hour at 37° C. RENCA cells were loaded with peptides by incubation with peptides (100 μM final concentration) for >2 hour at 37° C. Cells were then harvested and processed for FACS analysis as described.\nTo analyze this possibility and to follow the expression of endogenous 2C-reactive peptide/H-2 L^d complexes within a heterogeneous peptide/MHC environment, the influence of γ-IFN on the H-2 L^d -expressing murine cell line RENCA was studied.\nRENCA cells were cultured in the presence of variable amounts of γ-IFN to induce up-regulation of naturally loaded peptide/MHC complexes. […] The effect of γ-IFN was dose dependent with a maximal 2-3 fold increase seen on cells treated with 10 units/ml of γ-IFN."}, "[8]": {"biological_target": "serologically reactive H-2 L^d on RENCA cells (murine) (UniProt P01897)", "sequence (P01897 25-362)": "as above", "test": "flow cytometry on unstimulated RENCA cells"}, "[9]": {"biological_target": "serologically reactive H-2 L^d on RENCA cells (murine) (UniProt P01897)", "test": "flow cytometry on RENCA cells stimulated with 5-50 units/ml γ-IFN"}, "[10]": {"biological_target": "SIY-loaded H-2 K^b (mouse) (UniProt P01901)", "test": "flow cytometry on peptide-loaded T2 K^b cells"}, "[11]": {"biological_target": "pVSV-loaded H-2 K^b (mouse) (UniProt P01901)", "sequence (P01901 22-369)": "as the sequence (P01901 22-369) above", "test": "flow cytometry on peptide-loaded T2 K^b cells"}, "[12]": {"biological_target": "SIY-loaded H-2 K^bm3 (mouse)", "test": "flow cytometry on peptide-loaded T2 K^bm3 cells"}, "[13]": {"biological_target": "pVSV-loaded H-2 K^bm3 (mouse)", "test": "flow cytometry on peptide-loaded T2 K^bm3 cells"}, "[14]": {"biological_target": "QL9-loaded H-2 L^d (mouse) (UniProt P01897)", "sequence (P01897 25-362)": "as the sequence (P01897 25-362) above", "test": "direct flow cytometry on peptide-loaded L^d cells"}, "[15]": {"biological_target": "SL9-loaded H-2 L^d (mouse) (UniProt P01897)", "sequence (P01897 25-309)": "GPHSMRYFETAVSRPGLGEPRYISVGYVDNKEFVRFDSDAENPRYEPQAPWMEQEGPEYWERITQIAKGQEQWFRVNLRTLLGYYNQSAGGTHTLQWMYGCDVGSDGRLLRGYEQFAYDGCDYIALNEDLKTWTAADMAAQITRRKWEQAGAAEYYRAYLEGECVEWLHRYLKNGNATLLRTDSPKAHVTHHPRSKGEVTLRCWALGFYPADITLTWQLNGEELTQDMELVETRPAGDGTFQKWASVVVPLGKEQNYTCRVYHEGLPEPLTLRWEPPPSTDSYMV", "test": "direct flow cytometry on peptide-loaded RMA-S L^d cells"}, "[16]": {"biological_target": "QL9-loaded H-2 L^d (mouse) (UniProt P01897)", "test": "flow cytometry, serial dilutions on peptide-loaded RMA-S L^d cells, H57-FITC detection"}, "[17]": {"biological_target": "p2Ca-loaded H-2 L^d (mouse) (UniProt P01897)", "test": "flow cytometry, serial dilutions on peptide-loaded RMA-S L^d cells, H57-FITC detection"}}, "note": "Several values for one entry are separate records, joined by “and”; a condition that tells them apart may be missing. Equal values may be shown once. Where no end group is shown, it is not given here."}
{"substance": "2C TCR on 2C CTL (from UniProt A2KF29)", "values": [{"measurement": "LD50 of peptide for 2C CTL mediated lysis", "setting": "[1]", "value": 10, "unit": "ng/mL"}, {"measurement": "LD50 of peptide for 2C CTL mediated lysis", "setting": "[2]", "value": 100, "unit": "ng/mL"}, {"measurement": "LD50 of peptide for 2C CTL mediated lysis", "setting": "[3]", "value": "0.5 ng/mL and 1 ng/mL"}, {"measurement": "LD50 of peptide for 2C CTL mediated lysis of p2Ca-loaded T2 L^d cells", "setting": "[4]", "value": 0.5, "unit": "ng/mL"}]}
{"substance": "EQYKFYSV [dEV-8]", "values": [{"measurement": "2C CTL mediated lysis of peptide loaded targets", "setting": "[5]", "value": "neither lysed"}, {"measurement": "2C CTL mediated lysis of peptide loaded targets", "setting": "[6]", "value": "efficiently lysed"}, {"measurement": "2C CTL mediated lysis of peptide loaded targets", "setting": "[7]", "value": "relatively poor targets"}]}
{"substance": "LSPFPFDL [p2Ca]", "values": [{"measurement": "Kd", "setting": "2C TCR", "value": "0.1 to 0.5", "unit": "µM"}]}
{"substance": "LSPFPFDLL [SL9]", "values": [{"measurement": "Kd", "setting": "2C TCR", "value": 71, "unit": "µM"}]}
{"substance": "QLSPFPFDL [QL9]", "values": [{"measurement": "effect of prior incubation of RENCA cells with peptide on 2C TCR/Ig binding", "setting": "RENCA cells", "value": "dramatic increase"}, {"measurement": "Kd", "setting": "2C TCR", "value": 0.066, "unit": "µM"}]}
{"substance": "SIYRYYGL [SIY]", "values": [{"measurement": "2C CTL mediated lysis of peptide loaded targets", "setting": "[5]", "value": "efficient lysis"}, {"measurement": "2C CTL mediated lysis of peptide loaded targets", "setting": "[6]", "value": "significantly less efficient"}, {"measurement": "LD50 of peptide for 2C CTL mediated lysis", "setting": "[6]; T2 K^bm3 targets, effector to target ratio 10:1", "value": "~100", "unit": "ng/mL"}, {"measurement": "2C CTL mediated lysis of peptide loaded targets", "setting": "[7]", "value": "efficient lysis"}]}
{"substance": "YPHFMPTNL [pMCMV]", "values": [{"measurement": "effect of prior incubation of RENCA cells with peptide on 2C TCR/Ig binding", "setting": "RENCA cells", "value": "blocked"}]}
{"substance": "mAb 30.5.7 (antibody)", "values": [{"measurement": "mean channel fluorescence (MCF)", "setting": "[8]", "value": 500}, {"measurement": "mean channel fluorescence (MCF)", "setting": "[9]", "value": "2670 to 3040"}]}
{"substance": "soluble divalent 2C TCR/Ig (from UniProt A2KF29)", "values": [{"measurement": "mean channel fluorescence (MCF)", "setting": "[10]", "value": 276}, {"measurement": "mean channel fluorescence (MCF)", "setting": "[11]", "value": 14}, {"measurement": "mean channel fluorescence (MCF)", "setting": "[12]", "value": 36}, {"measurement": "mean channel fluorescence (MCF)", "setting": "[13]", "value": 12}, {"measurement": "mean channel fluorescence (MCF)", "setting": "[14]", "value": 3000}, {"measurement": "mean channel fluorescence (MCF)", "setting": "[15]", "value": 100}, {"measurement": "lowest concentration tested, at which binding was detected", "setting": "[16]", "value": 1, "unit": "nM"}, {"measurement": "concentration required to detect binding", "setting": "[17]", "value": 3, "unit": "nM"}]}
{"substance": "γ-IFN: lymphokine used to up-regulate naturally loaded peptide/MHC complexes on RENCA cells", "values": [{"measurement": "increase in serologically reactive H-2 L^d recognized by mAb 30.5.7", "setting": "RENCA cells; 5-50 units/ml γ-IFN, 48 hours", "value": "5-6 fold"}, {"measurement": "maximal increase of 2C TCR/Ig binding to RENCA cells", "setting": "RENCA cells; 10 units/ml γ-IFN, 48 hours", "value": "2-3 fold"}]}
